Source: PMC6405930, “Conservation of the Amyloid Interactome Across Diverse Fibrillar Structures” (Scientific Reports, 2019)

How the values were obtained:
Ab2 fibrils [1] = test system: T1, Ab2 fibrils; assay: Fibril incubation with plasma, quantitative MS/MS of bound proteins; type: binding, human; details: 50:1 w/w plasma protein:fibril
T1 construct: Two structurally distinct fibrils of the Aβ(1–40) peptide associated with AD
Method: (§1) Plasma and CSF solutions were centrifuged (40,000 g, 20 min) to remove any aggregates. The protein concentration was determined using 280 nm absorbance assuming 1 Abs = 1 mg/mL. […] Control samples (without fibril material) were prepared similarly. All samples were incubated at room temperature for one hour under gentle agitation. Fibrils and fibril-bound proteins were pelleted by centrifugation at 17,000 g for 30 minutes. The supernatant (175 μL) was removed and the aggregate was re-suspended in 175 μL PBS and pelleted again before further preparation for gel analysis and spin-filter assisted digest for quantitative MS/MS.
(§2) The fibril-protein pellets were transferred to spin-filters (0.22 μm), washed twice in PBS (100 μL) and once in 1 M NaCl (100 μL). The fibrils and fibril-bound proteins were dissolved by one-hour incubation in 100 μL 6 M guanidinium chloride followed by elution from the spin-filter. The eluted proteins were loaded onto a 3 kDa MWCO filter unit for filter-assisted unfolding, reduction, alkylation, and trypsin digestion. In brief, samples were washed twice in 8 M urea, once in 8 M urea with 50 mM DTT, once in 8 M urea with 50 mM iodoaceteamide, and twice in 8 M Urea. The filter units were dried by centrifugation (14,000 g in 30 minutes) after every addition. Trypsin digestion was carried out with 0.25 μg sequencing grade trypsin from Sigma Aldrich in 50 mM ammonium bicarbonate overnight at 37 °C. The tryptic peptides were collected by centrifugation, acidified with TFA (0.1%) and micro-purified using POROS R2 column material (Applied Biosystems) packed in P200 pipette tips (Sarstedt).
(§3) LC-MS/MS analyses were performed on an EASY-nLC II system (Thermo Fisher Scientific) connected to a TripleTOF 5600+ mass spectrometer (Sciex) equipped with a NanoSpray III source (Sciex) and operated under Analyst TF 1.6.0 control.
(§4) The micro-purified tryptic peptides were dissolved in 0.1% formic acid, injected and trapped on an in-house packed trap column (2 cm × 100 μm I.D) with RP ReproSil-Pur C18-AQ 3 μm resin (Dr. Maisch GmbH). Peptides were eluted from the trap column and separated on a 15 cm analytical column (75 μm i.d.) packed in-house in a pulled emitter with RP ReproSil-Pur C18-AQ 3 μm resin (Dr. Maisch GmbH). Elution from the analytical column was performed with a linear gradient from 5% to 35% phase B (90% acetonitrile with 0.1% formic acid) over 20 min for protein identification and 50 min for quantitative analysis, respectively.
(§5) All samples were analysed three times, yielding nine MS/MS experiments for each fibril for both plasma and CSF. For the area-based extracted ion chromatogram (XIC) quantification, the acquisition method was set up as an information-dependent acquisition (IDA) experiment collecting up to 25 MS/MS spectra in each 1.6 sec cycle using an exclusion window of 6 sec.
(§6) XIC quantification was based on the average ion intensity of the three most abundant peptides for each protein. Only proteins quantified in at least four out of nine MS/MS experiments per fibril were included in the quantification. The total ion scores were visualized after grouping the proteins according to function (Figure S11).
(§7) For each MS/MS experiment, the ion intensities of the individual proteins were normalized to the total ion intensity of that MS/MS experiment to achieve a relative protein composition. The contribution of each protein was averaged over all nine MS/MS experiments (Tables 1 and 2).

C-36 fibrils [2] = biological target: T2, C-36 fibrils (Homo sapiens, UniProt P01009); assay: as above; type: binding; details: 50:1 w/w plasma protein:fibril
T2 construct: the 36 residue C-terminal fragment of α1-antitrypsin (C-36)
T2 sequence (P01009 383-418 limits assumed): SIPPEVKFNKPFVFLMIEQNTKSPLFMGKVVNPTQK
Method: as §1, §2, §3, §4, §5, §6, §7

Ab1 fibrils [3] = test system: T3, Ab1 fibrils; assay: as above; type: binding, human; details: 50:1 w/w plasma protein:fibril
T3 construct: Synthetic amyloid β peptide 1–40 was purchased from Caslo Aps (Lyngby, Denmark); purchased Caslo Aps (Lyngby, Denmark); host or cells: synthetic peptide
Method: Plasma and CSF solutions were centrifuged (40,000 g, 20 min) to remove any aggregates. The protein concentration was determined using 280 nm absorbance assuming 1 Abs = 1 mg/mL. […] Control samples (without fibril material) were prepared similarly. All samples were incubated at room temperature for one hour under gentle agitation. Fibrils and fibril-bound proteins were pelleted by centrifugation at 17,000 g for 30 minutes. The supernatant (175 μL) was removed and the aggregate was re-suspended in 175 μL PBS and pelleted again before further preparation for gel analysis and spin-filter assisted digest for quantitative MS/MS.
as §2, §3, §4, §5, §6, §7

αSN fibrils = αSN fibrils (Homo sapiens, UniProt P37840); assay: as above; type: binding; details: 50:1 w/w plasma protein:fibril
Method: as §1, §2, §3, §4, §5, §6, §7

glucagon fibrils [4] = biological target: T4, glucagon fibrils (Homo sapiens, UniProt P01275); assay: as above; type: binding; details: 50:1 w/w plasma protein:fibril
T4 construct: fibrils of the peptide hormone glucagon
T4 sequence (P01275 53-81 limits assumed): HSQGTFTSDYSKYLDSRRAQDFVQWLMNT
Method: as §1, §2, §3, §4, §5, §6, §7

FAS4-AD aggregates [5] = test system: T5, FAS4-AD aggregates; assay: as above; type: binding, human; parameters: key to Identification status of plasma protein bound: FAS4-AD: *: Identified, but not quantified; —: Not identified in any of the samples; details: for Relative composition of plasma proteins bound: FAS4-AD: 50:1 w/w plasma protein:fibril
T5 construct: aggregates of a mutated version of the FAS1-4 domain of TGFBIp
Method: as §1, §2, §3, §4, §5, §6, §7

C-36 fibrils [6] = biological target: T2, C-36 fibrils; assay: Fibril incubation with CSF, quantitative MS/MS of bound proteins; type: binding; details: 4:1 w/w CSF protein:fibril
Method: as §1, §2, §3, §4, §5, §6, §7

FAS4-AD aggregates [7] = test system: T5, FAS4-AD aggregates; assay: as above; type: binding, human; parameters: key to Identification status of CSF protein bound: FAS4-AD: *: Identified, but not quantified; —: Not identified in any of the samples; details: symbol cells
Method: as §1, §2, §3, §4, §5, §6, §7

glucagon fibrils [8] = biological target: T4, glucagon fibrils; assay: as above; type: binding; details: 4:1 w/w CSF protein:fibril
Method: as §1, §2, §3, §4, §5, §6, §7

Ab2 fibrils [9] = test system: T1, Ab2 fibrils; assay: as above; type: binding, human; details: 4:1 w/w CSF protein:fibril
Method: as §1, §2, §3, §4, §5, §6, §7

Ab1 fibrils [10] = test system: T3, Ab1 fibrils; assay: as above; type: binding, human; details: 4:1 w/w CSF protein:fibril
Method: as §1, §2, §3, §4, §5, §6, §7

B1: C4b-binding protein α chain: plasma protein bound to fibrils (protein, UniProt P04003 49-597, looked up)
C4b-binding protein alpha …: NCGPPPTLSFAAPMDITLTETRFKTGTTLKYTCLPGYVRSHSTQTLTCNSDGEWVYNTFCIYKRCRHPGELRNGQVEIKTDLSFGSQIEFSCSEGFFLIGSTTSRCEVQDRGVGWSHPLPQCEIVKCKPPPDIRNGRHSGEENFYAYGFSVTYSCDPRFSLLGHASISCTVENETIGVWRPSPPTCEKITCRKPDVSHGEMVSGFGPIYNYKDTIVFKCQKGFVLRGSSVIHCDADSKWNPSPPACEPNSCINLPDIPHASWETYPRPTKEDVYVVGTVLRYRCHPGYKPTTDEPTTVICQKNLRWTPYQGCEALCCPEPKLNNGEITQHRKSRPANHCVYFYGDEISFSCHETSRFSAICQGDGTWSPRTPSCGDICNFPPKIAHGHYKQSSSYSFFKEEIIYECDKGYILVGQAKLSCSYSHWSAPAPQCKALCRKPELVNGRLSVDKDQYVEPENVTIQCDSGYGVVGPQSITCSGNRTWYPEVPKCEWETPEGCEQVLTGKRLMQCLPNPEDVKMALEVYKLSLEIEQLELQRDSARQSTLDKEL
In the case of B1, the “Relative composition of plasma proteins bound: Ab2” value (Ab2 fibrils [1]) is reported as 9.9 ± 0.5 % of total protein, the “Relative composition of plasma proteins bound: C-36” value (C-36 fibrils [2]) is reported as 5.5 ± 0.3 % of total protein and the “Relative composition of plasma proteins bound: Ab1” value (Ab1 fibrils [3]) is reported as 6.1 ± 0.2 % of total protein. The “Relative composition of plasma proteins bound: αSN” value (αSN fibrils) was 7.4 ± 2.5 % of total protein, the “Relative composition of plasma proteins bound: Glucagon” value (glucagon fibrils [4]) was 3.0 ± 0.1 % of total protein and the “Relative composition of plasma proteins bound: FAS4-AD” value (FAS4-AD aggregates [5]) was 2.7 ± 0.9 % of total protein.

B2: Ig μ chain C region: plasma protein bound to fibrils (protein, UniProt P01871 1-474, looked up)
Immunoglobulin heavy constant …: GSASAPTLFPLVSCENSPSDTSSVAVGCLAQDFLPDSITFSWKYKNNSDISSTRGFPSVLRGGKYAATSQVLLPSKDVMQGTDEHVVCKVQHPNGNKEKNVPLPVIAELPPKVSVFVPPRDGFFGNPRKSKLICQATGFSPRQIQVSWLREGKQVGSGVTTDQVQAEAKESGPTTYKVTSTLTIKESDWLGQSMFTCRVDHRGLTFQQNASSMCVPDQDTAIRVFAIPPSFASIFLTKSTKLTCLVTDLTTYDSVTISWTRQNGEAVKTHTNISESHPNATFSAVGEASICEDDWNSGERFTCTVTHTDLPSPLKQTISRPKGVALHRPDVYLLPPAREQLNLRESATITCLVTGFSPADVFVQWMQRGQPLSPEKYVTSAPMPEPQAPGRYFAHSILTVSEEEWNTGETYTCVVAHEALPNRVTERTVDKSTEGEVSADEEGFENLWATASTFIVLFLLSLFYSTTVTLFKVK
In the case of B2, the “Relative composition of plasma proteins bound: Ab2” value (Ab2 fibrils [1]) is reported as 0.7 ± 0.2 % of total protein, the “Relative composition of plasma proteins bound: C-36” value (C-36 fibrils [2]) is reported as 0.4 ± 0.1 % of total protein and the “Relative composition of plasma proteins bound: Ab1” value (Ab1 fibrils [3]) is reported as 0.6 ± 0.0 % of total protein. For the same molecule, the “Relative composition of plasma proteins bound: αSN” value (αSN fibrils) was 0.5 ± 0.2 % of total protein, the “Relative composition of plasma proteins bound: Glucagon” value (glucagon fibrils [4]) was 0.8 ± 0.1 % of total protein and the “Relative composition of plasma proteins bound: FAS4-AD” value (FAS4-AD aggregates [5]) was 2.6 ± 1.5 % of total protein.

B3: Ig γ -2 chain C region: plasma/CSF protein bound to fibrils (protein, UniProt P01859 1-395, looked up)
Immunoglobulin heavy constant …: ASTKGPSVFPLAPCSRSTSESTAALGCLVKDYFPEPVTVSWNSGALTSGVHTFPAVLQSSGLYSLSSVVTVPSSNFGTQTYTCNVDHKPSNTKVDKTVERKCCVECPPCPAPPVAGPSVFLFPPKPKDTLMISRTPEVTCVVVDVSHEDPEVQFNWYVDGVEVHNAKTKPREEQFNSTFRVVSVLTVVHQDWLNGKEYKCKVSNKGLPAPIEKTISKTKGQPREPQVYTLPPSREEMTKNQVSLTCLVKGFYPSDISVEWESNGQPENNYKTTPPMLDSDGSFFLYSKLTVDKSRWQQGNVFSCSVMHEALHNHYTQKSLSLSPELQLEESCAEAQDGELDGLWTTITIFITLFLLSVCYSATITFFKVKWIFSSVVDLKQTIVPDYRNMIRQGA
In the case of B3, the “Relative composition of CSF proteins bound: C-36” value (C-36 fibrils [6]) is reported as 1.0 ± 0.3 % of total protein, the “Identification status of CSF protein bound: FAS4-AD” value (FAS4-AD aggregates [7]) is reported as “*” and the “Relative composition of plasma proteins bound: Ab2” value (Ab2 fibrils [1]) is reported as 0.9 ± 0.1 % of total protein. For the same molecule, the “Relative composition of CSF proteins bound: Glucagon” value (glucagon fibrils [8]) was 1.1 ± 0.3 % of total protein, the “Relative composition of CSF proteins bound: Ab2” value (Ab2 fibrils [9]) was 2.0 ± 0.3 % of total protein and the “Relative composition of CSF proteins bound: Ab1” value (Ab1 fibrils [10]) was 1.7 ± 0.2 % of total protein. For the same molecule, the “Relative composition of plasma proteins bound: C-36” value (C-36 fibrils [2]) was 1.2 ± 0.2 % of total protein, the “Relative composition of plasma proteins bound: Ab1” value (Ab1 fibrils [3]) was 0.9 ± 0.1 % of total protein and the “Relative composition of plasma proteins bound: αSN” value (αSN fibrils) was 1.2 ± 0.8 % of total protein. The “Relative composition of plasma proteins bound: Glucagon” value (glucagon fibrils [4]) was 0.9 ± 0.1 % of total protein.

B4: C4b-binding protein β chain: plasma protein bound to fibrils (protein, UniProt P20851 18-252, looked up)
C4b-binding protein beta chain: SDAEHCPELPPVDNSIFVAKEVEGQILGTYVCIKGYHLVGKKTLFCNASKEWDNTTTECRLGHCPDPVLVNGEFSSSGPVNVSDKITFMCNDHYILKGSNRSQCLEDHTWAPPFPICKSRDCDPPGNPVHGYFEGNNFTLGSTISYYCEDRYYLVGVQEQQCVDGEWSSALPVCKLIQEAPKPECEKALLAFQESKNLCEAMENFMQQLKESGMTMEELKYSLELKKAELKAKLL
With B4 the “Relative composition of plasma proteins bound: Ab2” value (Ab2 fibrils [1]) was 1.3 ± 0.3 % of total protein, the “Relative composition of plasma proteins bound: C-36” value (C-36 fibrils [2]) was 0.7 ± 0.1 % of total protein and the “Relative composition of plasma proteins bound: Ab1” value (Ab1 fibrils [3]) was 0.9 ± 0.1 % of total protein. The “Relative composition of plasma proteins bound: αSN” value (αSN fibrils) was 1.3 ± 0.4 % of total protein, the “Relative composition of plasma proteins bound: Glucagon” value (glucagon fibrils [4]) was 0.5 ± 0.1 % of total protein and the “Identification status of plasma protein bound: FAS4-AD” value (FAS4-AD aggregates [5]; symbol cells) was “*”.
